In a protein production outcome set (Wang et al. 2014):

Assay: label from the status in PepcDB records

| Sequence | protein production |
| --- | --- |
| MTLSITSNFDAGAIDVVSCERADAIRLRVRGDNRSEFAQWFYFRLTGARGERCVMTFENANDCAYPAGWRDYRAVASYDRVNWFRVPTSYDGQMLTIDHTPEFDSIHYAYFEPYSEERHSEFLGAVQQMPQASVVELGRTVEGRPMSLVVLGTPDEAGAAKKKVWIIARQHPGESMAEWFIEGLVKRLVGWGDWSGDPVARKLYDHATFYIVPNMNPDGSVHGNLRTNAAGANLNREWMEPDAERSPEVLVVRDAIHAIGCDLFFDIHGDEDLPYVFAAGSEMLPGFTEQQRVEQSAFIDSFKRASPDFQDEHGYPPGKYREDAFKLASKYIGHRFGCLSLTLEMPFKDNANLPDEHIGWNGARSASLGAAMLGAILEHVRAFA | not failed |
| MSPGPQSGGQERGSMERKMVELEDTGLTFATEVDLERLQALAAEWLQVIGEDPGREGLLKTPERVAKAWAFLTRGYRQRLEEVVGGAVFPAEGSEMVVVKGVEFYSMCEHHLLPFFGKVHIGYIPDGKILGLSKFARIVDMFARRLQVQERLAVQIAEAIQEVLEPQGVGVVVEGVHLCMMMRGVEKQHSRTVTSAMLGVFRENQKTREEFLSHLRDGTA | not failed |
| MLFIAFAPFGAFALEANSKNDGYSLDDIKYYKIFENEDIPKIMYALRQGDFEIIAELKNEWEIEEEDVSFEYTTSKNPLGELIRDNLYELGQKYEVFEDESDFVSKMNVWATAFTKSMMKKSSEQKDKLIVQTVNALDNLDETLNLFSERLREWYSLYFPEMDNIVKKHDIYVSLVSEYGDREEYTRTKLKKTMPSNVARTISLAAKESMGADVSEFDLKIMKNLADEIKSMYEYRESLQEYLETSMNEIAPNLTKVAGASLGARLISLAGGIERLLRLPASTIQVIGAEKALFAHLRERALPPKHGVIFQHPLIQGSPWWIHGKIARAISCKISIAIRADAFGNDISDMLIEDMNKKVAEIKEKFPEPTRKRRPRPDTRSFGNKGGQDRDRRSQGDRKPSGNRGDSKKGGKPFGKKPAGKDDRRDNRKGDRKPFGGKPKNSGNQPPKERSGEKRRDSTKKVKAERKVIGKTSSQNLEHHHHHH | not failed |
| MSLKYLGVYVMEVQKNSSFKNKLQIGDTVLGANGHRFHSTEEMMTYLRKQKINSKVTISVLRGKEKLEHHHHHH | failed |
| MTDSTTLQQPAGANNLYGGLLSAQGLDLDQFETIHTQVQAWKTTAGTDVKFVEARELPIVDVILRFKAGTTQDTLYPGLAALTLSMLDEGSQAYTAAQQAEHLERLGAVMEKQVRLEHATLRLRSLSPPSLLDPALAVFTDLVAHPVFHPMALTRIKRQLLQNHASRERLPILRARSEVFRHLFNGHPYGNPLGSTAQGIEAITPEDLRAFHQRAYSASNLEMVVVGDLSPGQAQAISQQISQALPQGWSATELPAAPSAPSATIAVEQAGASSAILLALPMNVPANDPEFLALALASAVLGEGLESRLMVELRQRRGLTYGVHTHVLPLSAGGLFTVEWEVAPQHVQGTQALVETLLQAFIDEGPTQLELQLARKQLEGQLLRGIAQNRQLATLLTEVTHQRQPADHLDTYSARIAELTPADVRAVMQRRLALSHKVLVSVGPGVQQQPLPAPDQ | failed |
| MGRTVVVLGGGISGLAASYHLSRAPCPPKVVLVESSERLGGWIRSVRGPNGAIFELGPRGIRPAGALGARTLLLVSELGLDSEVLPVRGDHPAAQNRFLYVGGALHALPTGLRGLLRPSPPFSKPLFWAGLRELTKPRGKEPDETVHSFAQRRLGPEVASLAMDSLCRGVFAGNSRELSIRSCFPSLFQAEQTHRSILLGLLLGAGRTPQPDSALIRQALAERWSQWSLRGGLEMLPQALETHLTSRGVSVLRGQPVCGLSLQAEGRWKVSLRDSSLEADHVISAIPASVLSELLPAEAAPLARALSAITAVSVAVVNLQYQGAHLPVQGFGHLVPSSEDPGVLGIVYDSVAFPEQDGSPPGLRVTVMLGGSWLQTLEASGCVLSQELFQQRAQEAAATQLGLKEMPSHCLVHLHKNCIPQYTLGHWQKLESARQFLTAHRLPLTLAGASYEGVAVNDCIESGRQAAVSVLGTEPNS | failed |
| MSRRSHNPQSCSSVPTALINGPRVETMTDSVLDVTADALEQAGAHPHRLVVRQHGQVVGRRRWAPWSPDVPSLVYSCSKTFTSAAVGIAVNRGAFGYDDTLADLWPQACTANTGPVAKSMTVRNALSMSTGHSPEQLLEPTLMSRRLPDLNTARILLATEPEGRPGIDFAYNNLATWMLSRLVAQHTGEDVDTIITKEVLDPIGAGPHTWVRDADGIPMGFSGLHIDAEDLSLFGQLLLDDGVHEGARLLPEEWIRQHRVRQVNCDSETDPEWGMGYGWQTWMSSHGYRLDGAFGQYVLIVPEVDAVITMTNEASEGPGDKQAILQAVWDHLLPALADGFQPQPEEIVRTVPTVTGEFDSARSVQGIAPDGSYIVVSPHKESRTWAMSWRCPGTFSHPTDETLDIAVGYEEWQTSHCRVGDDAIDIATSGGWQGETFVARLCVISTPHTLTLRMTPEATTTEWDNEPLNPGGLLGLVHPELRR | failed |
| KLGMKPVSDVSRVTIKRAKNVLFVISKPDVYKSPNAETYVIFGEAKVDDLSSQLQTQAAQRFKMPDVTSMLPNAGSEATMAPLAEEEDEDDVDDTGVEARDIDLVMTQAGVSKAKAVSALKANDGDIVSAIMELTT | failed |
| MLKTILSISGKPGLFKLVSHGKNMLIVESLADKKRVPAYAKDKVISLGDIAIYTNEAEVPLHEVLTNVKNKENGQQASVSTSAKPDELRAYFAEILPNFDRERVYPSDIKKLISWYNILIGAGLTEFTPEGSATEEASVKETKKEEA | failed |
| MKITGTVVKLGIVSVVLLFFTVMIIVIFGQMRFDRTNGYTAEFSNVSGLRQGQFVRASGVEIGKVKALHLVDGGRRVRVEFNIDRSVPLYQSTTAQIRYSDLIGNRYVELKRGEGKGANDLLPPGGLIPLSRTSPALDLDALIGGFKPVFRALDPAKVNNIANALITVFQGQGGTINDTLDQTAQLTSQIAERDQAIGEVVKNLNIVLDTTVKHRKEFDETVNNLENLITGLRNHSDQLAGGLAHISNGAGTVADLLAENRTLVRKAVSYLDAIQQPVIDQRVELDDLLHKTPTALTALGRANGTYGDFQNFYLCDLQIKWNGFQAGGPVRTVKLFSQPTGRCTPQ | failed |
| MNSPSHLEVREGADINLYNQILIPLYGADIRDSVVQYGLSLAETYDAALHVLYIQDEERTEVESDQVTKQEEWDAAAVIEPVVDQAHSLGLNVIPAVDSGHSPGVIREYAEENDIDLLVHQKPTQTRLARILRRDVSSHIIQNISLPVLTIPDMDPSDPVGELSTSQFTDILVPTDGYDEASVAFKHGLQIAKRYDATLHGLFIISEQSYSSRPGFTWEEVTDSWEQRGTRLLEDITEKAATLDVPVRTTLRFGQPQQEILKYTEVTDIDLVTMGTRGLTGIRRLLQGSVAAQVIEEADYPVLTINRRTAELKKHPYTFLRKTNQNRKSRLY | failed |
| MSGREFLQKLLDGERVEWKALGEIIQLEKGRQLNKDLLSSSGRYPAYNGGMSYSGFTDSYNYSENKTIISQGGASAGFVNFVTTKFYANAHCYVVLPDTEVVDNRYIYHFLKLNEERLTSCQHGAGIPALRASEITSLKIPIPCPDNPKKSLAIQAEIVRILDAFTELTAELTAELTARKKQYAYYRDRLLTFTTPPYGHPSKGGELFSLFGHPSEGGELFTPYGHSVEERELNSPSLKGWQAQPDGVVPVEWKTLGEVGHFIRGSGIQKSDFKASGVGCIHYGQIHTHYGTWTTETKSFIDPEFANRLKKAKPGDLVIATTSEDDDAVAKAVAWIGTEDVAVSTDAYIFRHTANPKYMSYFFQTDMFQEQKKPYITGTKVRRISGDNLAKILIPIPPLAEQERIVAILDQFDALTNSLTEGLPREIELRQKQYAYYRDLLFSFPKASFGGVPEGRDQFPSFGGVPEGRGGLNALEHHHHHH | failed |
| MSDAQLGPLRLTLLSVSARTGFCKKQQELWQRRKEAAEALGTRKVSVLLATSHSGARPAVSTMDSSAAPTNASNCTDALAYSSCSPAPSPGSWVNLSHLDGNLSDPCGPNRTDLGGRDSLCPPTGSPSMITAITIMALYSIVCVVGLFGNFLVMYVIVRYTKMKTATNIYIFNLALADALATSTLPFQSVNYLMGTWPFGTILCKIVISIDYYNMFTSIFTLCTMSVDRYIAVCHPVKALDFRTPRNAKIINVCNWILSSAIGLPVMFMATTKYRQGSIDCTLTFSHPTWYWENLLKICVFIFAFIMPVLIITVCYGLMILRLKSVRMLSGSKEKDRNLRRITRMVLVVVAVFIVCWTPIHIYVIIKALVTIPETTFQTVSWHFCIALGYTNSCLNPVLYAFLDENFKRCFREFCIPTSSNIEQQNSTRIRQNTRDHPSTANTVDRTNHQVRSL | failed |
| MLNDGVYLAQARGMAGFVHAKLTVKDNKIVGVDLDLTTETPENKPKVEQQLKKEILTRQSADIDAVSGATFTSNGVKEAVQQTLKQAEKLEHHHHHH | not failed |
| ALGVGRSGAMDQTALSQANRIVGNPDHAAVIEILNGGLKLKVLQSTVVAVTGAASHIGVSYAGQAQVKVPDYSPIALDCGDLLYIDSPHAGLRHYLAIRGGIKTEKILGSASFDTLAELGTPPLKPHDFIYSAELSVGSVLLHEKCAQQLPKIGDVVEVDVILGPRTDWFEPESLTQFFQQQWLVTQESNRIGLRLSAGLPLKRQIHGELASEGTCTGALQIPPNGQPVLFMNDHPLTGGYPVLGAIAIDHLDRVAQIPPGCLIQFRQKSEILDLDKEST | failed |
| MLDVAPPVITPRGTKIEPSAGAPFEAVRVARDVLHTSRTAALATLDPVSGYPYTTATNIGIEPDGTPFFFAAGLTLHARNMETDARISVTLAPFGKGDALTLPRLTLVGRADRIGPDEVPLAIARYIARYPKAKLYLSLPDTRLYRLRTEGVQINGGPARNASNITPADLRTDLSGAEELMAAAESEATRLNAIKGEASRLAVLAGAKTGRWKITSIDPDGIDLASASDLARLWFAERVETLKQFEKALAQLLK | not failed |
| MQLEPRINTFSMEAMFTFSSTFLYDSIVDSSRPILATSLLGCDVTDPERRATTACCICEETLSELHMTRPTQKVKAVSGPTRERHIIFSTCKPVL | failed |
| MEIMKKQNSQINEINKDEIFVVVPAFNEEKMIGETLKNLKKEGYKNIVVVDDGSMDKTSEIAKKEGVIVCRHILNRGLGGALGTGIKCALLYKPKIIITFDADGQHHPKDVEKVVKPVLFEGYDMAIGSRMMDKNELKNMPLVKRIGNFGLNFITYLMGGYFVTDSQSGLRAFSYEAAKKIIGDLKSDRYEVSSEFIILAKKHGLKLKEVPIKTIYTEYSMSRGTNVITGFKILFKLIMQKIF | failed |
| GRARVKVEGVFYNPRMRFCRDLDMLVFATMDSKEYFDALSASGIRGIRAALEAGKKAVFNDVSPKAVKVIEENLRENGVSGEVINGDAAAVMRQRAFEHIDIDPFGSPAPFMDSACFSAKRYLSVTATDTAALCGSATNSGLKKYGAFAVKTDVYHEVGLRMLIGFVVREATKYEKALFPLISWVREHYYRVHFKIKKSTAMSAKVYEKMGYLAYCSTCLRKKVLGMGEGAERCECGGKFSLIGPIWLGELKQRDFAEKVAEKAEGKLRAFLEKILAEIDAPTAYSLPALAKIHSLTLPPTDVVVEELKKLGYEASRTHYCGFCVKTDADRDVVVKILRSRK | failed |
| MSIDFYNQNASSFYASTVEVDSSSLLEQFTPYLPKGGSVLDAGCGSGRDSKRLIELGFHVDAFDASAALATLAQQLLGKPVRVATFMQFTSTLQYDGIWACASLLHVSKASLPDAFAHLASMLKSGGAFYCSFKYGQGEVERDGRSFTHCDEALLAELLTGSPLVIDKVWLTLEHHHHHH | failed |
| EAGEITFTEWCQGAVDMWRANDITRSDITRATRALKPKAGAVDLLAHLQQTDIRFGILSAGVANLAARFEPYEPAFVRGNWLQFEDRRVSAIDIGVGPNEKGELLRKIRSKQNPVSITYIGDSHTDTEAFIEADTAVLFDPDERVPETAIDAADTIIESADIAEVQNCIPTA | failed |
